Results published in publication PMC8412337, “Alpha-single chains of collagen type VI inhibit the fibrogenic effects of triple helical collagen VI in hepatic stellate cells” (PLoS ONE, 2021).

B1: α2(VI): monomeric alpha 2 single chain of collagen VI isolated from human placentas (protein, UniProt P12110 21-1019, looked up)
Collagen alpha-2(VI) chain: QQQEVISPDTTERNNNCPEKTDCPIHVYFVLDTSESVTMQSPTDILLFHMKQFVPQFISQLQNEFYLDQVALSWRYGGLHFSDQVEVFSPPGSDRASFIKNLQGISSFRRGTFTDCALANMTEQIRQDRSKGTVHFAVVITDGHVTGSPCGGIKLQAERAREEGIRLFAVAPNQNLKEQGLRDIASTPHELYRNDYATMLPDSTEIDQDTINRIIKVMKHEAYGECYKVSCLEIPGPSGPKGYRGQKGAKGNMGEPGEPGQKGRQGDPGIEGPIGFPGPKGVPGFKGEKGEFGADGRKGAPGLAGKNGTDGQKGKLGRIGPPGCKGDPGNRGPDGYPGEAGSPGERGDQGGKGDPGRPGRRGPPGEIGAKGSKGYQGNSGAPGSPGVKGAKGGPGPRGPKGEPGRRGDPGTKGSPGSDGPKGEKGDPGPEGPRGLAGEVGNKGAKGDRGLPGPRGPQGALGEPGKQGSRGDPGDAGPRGDSGQPGPKGDPGRPGFSYPGPRGAPGEKGEPGPRGPEGGRGDFGLKGEPGRKGEKGEPADPGPPGEPGPRGPRGVPGPEGEPGPPGDPGLTECDVMTYVRETCGCCDCEKRCGALDVVFVIDSSESIGYTNFTLEKNFVINVVNRLGAIAKDPKSETGTRVGVVQYSHEGTFEAIQLDDERIDSLSSFKEAVKNLEWIAGGTWTPSALKFAYDRLIKESRRQKTRVFAVVITDGRHDPRDDDLNLRALCDRDVTVTAIGIGDMFHEKHESENLYSIACDKPQQVRNMTLFSDLVAEKFIDDMEDVLCPDPQIVCPDLPCQTELSVAQCTQRPVDIVFLLDGSERLGEQNFHKARRFVEQVARRLTLARRDDDPLNARVALLQFGGPGEQQVAFPLSHNLTAIHEALETTQYLNSFSHVGAGVVHAINAIVRSPRGGARRHAELSFVFLTDGVTGNDSLHESAHSMRKQNVVPTVLALGSDVDMDVLTTLSLGDRAAVFHEKDYDSLAQPGFFDRFIRWIC

Legend:
[1] = Live/Dead Viability/Cytotoxicity Kit (Calcein AM staining); assay type: cell-based; details: 24 h with individual chains; S4 Fig; three independent experiments
Procedure: Supplementary file pone.0254557.s004.pdf: S4 Fig Single CVI chains are not toxic To exclude that the effects of the alpha chains on proliferation or gene expression are due to cytotoxic effects, cells were treated 24 h with individual chains and cell viability was determined using the two-colour fluorescence Live/Dead™ Viability/Cytotoxicity Kit (Invitrogen™). Methanol (10% in medium) was used a positive control to induce cell toxicity. Medium was used as a non-toxic negative control. Since acetic acid (HAc) is used as solvent of the chains, cells treated with 0.15 M HAc were included as an additional control group. Shown are Mean ± SD of three independent experiments. Statistics were calculated by one-way ANOVA analysis and Tukey’s multiple comparisons test. Differences p<0.05 were considered significant. (PDF) Click here for additional data file.

[2] = tested on: 10% FBS-induced proliferation of HSC; assay: Inhibition of 10% FBS-induced proliferation by alpha single chains, [3H]-thymidine incorporation; assay type: cell-based, rat; details: cells grown in 10% FBS, Fig 4A
Procedure: (§1) 5x10^3CFSC in 100 μl 10% FBS were seeded into a 96-well flat-bottom tissue culture plate (Nunc, Roskilde, Denmark). After 24 hours, medium was completely removed, and cells were rinsed with 200 μl phosphate-buffered saline and 100 μl standard medium containing only 0.25% FBS were added. Cells were cultured for additional 24 h prior to treatment. Synchronized microcultures in 96-well plates were treated for 2 hours in reduction medium. When appropriate, the reduction medium was supplemented with 40 mg/l of α1(VI), α2(VI) or α3(VI). Then, 30 mg/l CVI or CI as control were added and cells were incubated for 24 h after which [^3H]-thymidine was added for additional 24 h. To assess effects of α3(VI)-derived 30-mer peptides on CVI-induced proliferation of CFSC, the reduction medium was supplemented with a 100-fold molar excess of the respective 30-mer peptides compared to CVI. [^3H]-thymidine incorporation was measured as described before. Cells treated with 150 mmol/l HAc or grown in 10% FBS served as negative and positive controls, respectively. During the last 4 hours of treatment, all cultures received 18.5 kBq [^3H]-thymidine (Amersham, Freiburg, Germany). Cells were fixed with 10% trichloroacetic acid and lysed by 200 mmol/l NaOH. After neutralization with 800 mmol/l HCl, lysates were collected to a glassfibre mat and the de-novo DNA synthesis was assessed by liquid scintillation (LKB Wallac, Bromma, Sweden) and the radioactive decay was counted (for) a minute (cpm).

[3] = tested on: CVI-induced proliferation of HSC; assay: Inhibition of CVI-induced proliferation by alpha single chains, [3H]-thymidine incorporation; assay type: cell-based, rat; details: 40 mg/l single chain, then 30 mg/l CVI; 24 h; primary rHSCs, n = three; Fig 4A legend: CFSC, n = 4
Procedure: as §1

[4] = tested on: CFSC; assay: Fibrosis-associated gene expression, quantitative real-time PCR; assay type: cell-based, rat; details: serum-starved CFSC; 30 mg/l CVI plus 133 mg/l monomeric alpha chain; 24 h; n = 4
Procedure: 30 mg/l CVI, 133 mg/l of the monomeric alpha chains of CVI and/or TGF-β (2 ng/ml) were added after 24 h. […] Reverse transcribed complementary DNA templates were amplified by quantitative real-time polymerase chain reaction (PCR; Roche Diagnostics, Mannheim, Germany) using fluorogenic probes labeled with 6-carboxy-fluorescein and 6-carboxy-tetramethylrhodamin (Sigma- Genosys, Steinheim, Germany) and primer pairs (Invitrogen, Karlsruhe, Germany) specific for fibrosis-associated genes (for sequences see S2 Table). Gene expressions were normalized to glyceraldehyde phosphate dehydrogenase (GAPDH).

[5] = tested on: rat HSCs; details: blocking integrins in rat HSCs; cited from earlier work
Text: While the mechanisms underlying this anti-apoptotic property of CVI remain to be fully established, our studies point to a potent repression of BAX by soluble CVI. […] This growth factor withdrawal-induced p53 and Bax upregulation can be mitigated by ECM components through integrin-mediated adhesion and spreading as shown for rat HSCs.

| Molecule | cytotoxic effects (Calcein AM staining, cell viability) [1] | effect on 10% FBS-induced proliferation [2] | inhibition of DNA synthesis in the presence of CVI [3] | effect on CVI-induced expression of αSMA, CI and TGF-β [4] | increase in the Bax/Bcl-2 ratio [5] |
| --- | --- | --- | --- | --- | --- |
| α3(VI): monomeric alpha 3 single chain of collagen VI isolated from human placentas | not secondary to cytotoxic effects | did not block any FBS-induced proliferation | 70% | largely blocked | – |
| Gly-Arg-Gly-Asp-Ser [GRGDS] | – | – | – | – | 3 fold |
| B1 | not secondary to cytotoxic effects | also inhibited 10% FBS-induced proliferation | 60% | largely blocked | – |
